Measurements from the nanobody polyreactivity screen of Harvey et al. (2022).

assay: yeast display, Sf9 membrane polyspecificity reagent, FACS + sequencing; frameworks hold sequencing errors
In short: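 In a synthetic yeast display library (Saccharomyces cerevisiae BJ5465), nanobody expression was induced with galactose for 36–48 hours. FACS gates were set low and high (top ~1%) using anti-HA fluorescence for expression and streptavidin fluorescence for binding of the Sf9 membrane reagent. Each polyreactivity label is drawn from the gate of origin.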

| Sequence | polyreactivity (PSR sort gate) |
| --- | --- |
| QVQLVESGGGLVQAGRSLRLNCAASGSIIKYNAMGWYRPAPGKERELVASISSSGGTTYYADSVKGRFTISRDNAKNTVYLQMNRLTPEDTAVYYCTKYVRAGNGYGEEDYWGQGTQVTVSS | high polyreactivity |
| QVQLVESGGGLVQAGRSLRLSCAASGFIFKSYAMGWYRQAPAKERELVAAISFSGGSTYYADSVKGLFTISRDNAKNTVYLQMNSLKPEDSAVYYCAADPRNGEYYYWGQGTQVTVSS | high polyreactivity |
| QVQLVESGGGLVQAGRSLRLSCAASGFTFRWYGMGWYRQAPGKERELVAAISWSGGTTYYADSVKGRFTISRDNAKKTVYLQMNSLKAEDTAVYYCAASFQTFASRYDYWGQGTQVTVSS | high polyreactivity |
| QVQLVESGGGLVQAGRSLRLSCAASGIIFAFYAMGWYRQAPGKERELVAAISIDGSTYYADSVKGRFTISRDNAKNTVYLQMNSLKPEDTAVYYCAAQYLNVYYWEDYWGQGTQVTVSS | low polyreactivity |
| QVQLVESGGGLVQAGRSLRLSCAASGRIFRFKTMGWYRQSPGKERELVAAITYSGGGTYYADSVKGRFTISRDNAKNTVYLQMNSLKPEDTAVYYCAATLYLRTIDDYWGQGTQVTVSS | high polyreactivity |
| QVQLVESGGGLVQAGRSLRLSCAASGRIFSDYAMGWYRQAPGKERELVATITSGDSTNYADSVKGRFTISRDNAKNTVYLQMNSLNPEDTAVYYCNADRFADYDYWGQGTQVTVST | low polyreactivity |
| QVQLVESGGGLVQAGRSLRLSCAASGRTFLVYAMGWYRQAPGKERELVAVINSGTSTNYADSVKGRFTISRDNAKNTVYLQMNSQKPEDTAVYYCATAYRRRDRHYYWGQGTQVTVSS | low polyreactivity |
| QVQLVESGGGLVQAGRSLRLSCAASGRTYSVYAMGWYRKAPGKETELLAGITSGGSTNYADSVKGRFTISRDNAKNTVYLQMNSLNPEDTAVYYCAAENVYAGFGFVSIGDYWGQGTQVTVST | low polyreactivity |
| QVQLVESGGGLVQAGRSLRLSCAASGSISRFYAMGWYRQAPAKERELVGANSWSGGRTYYADSVKGRFTISRDNAKNTVYLQMNSLKPEDTAVYYCNAFRRYNDEDYWGQGTQVTVSS | high polyreactivity |
| QVQLVESGGGLVQAGRSLRLSCAASGSTFPWYTMGWYRQAPGKERELVAAIDGSAGDTYYADSVKGRFTISRDNAKNTVYLQMNSLKPEDTAVYYCATRTSRWGYLHYDYWGQGTQVTVSS | low polyreactivity |
| QVQLVESGGGLVQAGRSLRLTCAASGRTFLANAMGWYRQAPGKEREFVAAIDWRTGSTYYADSVKGRFTISRDNAKNSVYLQRNSLNPEDTAVYYCAKDSSSYYYAHFYYWGQGTQVTVSS | high polyreactivity |
| QVQLVESGGGLVQAGRTLRLRCAASVSTVPYAMGWYSPAPGKERELVAAISKSAGRSYYADYVKGRFTISRENAKNTVYLQMNSLKPEDTAVYYCAARQSYYGHDYWGQGTQVTVSS | high polyreactivity |
| QVQLVESGGGLVQAGRTLRLSCAASGRTFVPYAMGWYRPAPGKERELVAAISYSGDSTYYADSVKGRFTISRDNAKNTVYLQMNRLKPEDTAVYYCAARGGYPFYYWGQGTQVTVSS | low polyreactivity |
| QVQLVESGGGLVQAGRTLRLSCAASGRTLGLYAMGWYRQAPGKERELVAAITTSGGSTSYADSVKGRFTISRDNAKNTVYLEMNSLKPEDTSVYYCAVDVEVTFFQYSWIYGSWGQGTQVTVSS | low polyreactivity |
| QVQLVESGGGLVQAGRTLRLSCAASGSTFSVYGMVWYRQAPGKERELVAINIIGGSTYYADSVKGRFTISRDNAKYTVYLQMNSLKPEDTAVFYCAADSFPSEFDYWGQGTQVTVSS | low polyreactivity |
| QVQLVESGGGLVQAGRTLRLSCAPSGSIFSYYAMGWYRQAPGKERELVAAITSGGTTYYADSVKGRFTISRDNAKNTVYLQMNSVKPEDTAVYYCAADFVFRWYSYTGRWYSSYDYWGQGTQVTVSS | low polyreactivity |
| QVQLVESGGGLVQAGSSLRISCAASGRTLIYYAMGWYRQAPGKEREMVASINRRGDSTYYADSVKGRFTISRYNAKNTVYLQMYSLKPEDTAVYYCAKVLYGGYPENRYFVGWGREYLGQGTQVTVSS | high polyreactivity |
| QVQLVESGGGLVQAGVSLRLICDAYGRIFIVNAMGWYRQAPGKERELVAAISRGGSKNYADSVKGRFTISRDNAKNTVYLQMNSLKPEDTAVYYWNGDGSSYWYPVTQHGGDYCGQGTQVTVSS | low polyreactivity |
| QVQLVESGGGLVQAGVSLRLSCAASGFIFEPSAMGWYRQAPGKERELVAAISSGGSTNADSVKGRFTISRDNAKNTVYLQMNSLKPEDTAVYYCAADSYYSVWGFYYWGQGTQVTVSS | low polyreactivity |
| QVQLVESGGGLVQAGVSLRLSCAASGFIFSTYAMGGYRQAPGKERELFASIDWSGDSTYYADSVKGRFTISRDNAKNTVYLQMNSLKPEDTAVYYCAASLWPDYEYDYWGQGTQVTVSS | low polyreactivity |
| QVQLVESGGGLVQAGVSLRLSCAASGFTFTTYVMGSYRQAPGKERELVAAISRRGTSTRYADSVKGRFTISRDNAKNTVYLQMNSLKPEDTAVYYCAADRPYSIVPYDYWGQGTQVTVSS | high polyreactivity |
| QVQLVESGGGLVQAGVSLRLSCAASGITFNHYTMGWYRQAPGKERELVAAISSRGSTTYYADSVKGRFTISRDNAKNTVYLQMNSLKPEDTAVYYCAAVYYLYSAWRYDYWGQGTQVTVSS | high polyreactivity |

| Sequence | polyreactivity (PSR sort gate) |
| --- | --- |
| QVQLVESGGGLVQAGVSLRLSCAASGITLYRYAMGWYRQATGKERELVADISSGGGTTYYADSVKGRFTISRDNAKNTVYLQMNSLKPEDTAVYYCAADYGFRYPLYDYWGQGTQVTVSS | low polyreactivity |
| QVQLVESGGGLVQAGVSLRLSCAASGRIFNYYTMGWYRQAPGKERELVAAINWSGGSTYYADSVKGRFTISRDNAKNTVYLQMNSLKPEDTAVYYCNALGYYGRAYYRGYDYWGQGTQVTVSS | high polyreactivity |
| QVQLVESGGGLVQAGVSLRLSCAASGRIFVGYAMGWYRQAPGKERELVAGIRYSGGSTYYADSVKGRFTISRDNAKNTVYLQMNSLKPEDTAVYYCATQVWHYAGRPNYKYDYWGQGTQVTVSS | low polyreactivity |
| QVQLVESGGGLVQAGVSLRLSCAASGRTFTHYPMGWYRQAPGKERELVAAISRSGGTTYYADSVKGRFTISRDNAKSTVYLQMNSLKPEDTAVYYCNAEVVDSELGVFVDYYWAYDYWGQGTQVTVSS | high polyreactivity |
| QVQLVESGGGLVQAGVSLRLSCAASGRTFVWYVKGWYRQAPGKERELVAAINRSGGRTYYADSVKGRFTISRDNAKNTVYLQMNSLKPEDTAVYYCAAARYVRYYSGYWGQGTQVTVSS | high polyreactivity |
| QVQLVESGGGLVQAGVSLRLSCAASGSIFAYYAMGWYRQAPGKERELVATIRSSGGRTYYADSVKGRFTISRDNAKNNVYLHLNSLKPEDTAVYYCAAERSITYDYWGQGTQVTVSS | high polyreactivity |
| QVQLVESGGGLVQAGVSLRLSCAASGSIFGHYAMGWYRQAPGKERELVAAISWSGTSTYYADSVKGRFTISRDNAKNTVYLQMNSLKPEDTAVYYCNVVYRVVSPSGGGYWGQGTQVTVSS | high polyreactivity |
| QVQLVESGGGLVQAGVSLRLSCAASGSIFRIYGMGWYRQAPGKEREFVAAITHSGGSTYYADSVKGRFTISRDNAKNTVYLQMNSLKPEDTAVYYCAAEDYNYWSYDYWGQGTQVTVSS | low polyreactivity |
| QVQLVESGGGLVQAGVSLRLSCAASGSIFYYYAMGWYRPAPGKERELVAAITRSGGSTYYADSVKGRFTISRDNAKNTVYLQMNSLKPEDTAVYYCAKDAHAYRDLDYWGQGTQVTVSS | low polyreactivity |
| QVQLVESGGGLVQAGVSLRLSCAASGSTFAFYDMGWYRQAPGKERELVAGISSSGSTYYADSVKGPFTISRDNAKNTVYLQMNSLKPEDTAVYYCAADAPYLVPYGWWDYDYDYWGQGTQVTVSS | low polyreactivity |
| QVQLVESGGGLVQAGVSLRLSCAASGSTFPVNTMGWYRQAPGKERELVAAISWSGGRTYYADSVKGRFTISRDNAKNNVYLQMNILKPEDTAVYYCAADIGSYYYYTYYYWGQGSQVTVSS | high polyreactivity |
| QVQLVESGGGLVQAGVSLRLSCAASGSTFYRKTMGWYIQAPGKERELVAAISSSGGSTYYADSVNGRFTISRDNAKNTVYLQMNSLKPEDTAVYYCADTYSPFDFYYWRQGTQVTVSS | low polyreactivity |
| QVQLVESGGGLVQAGVSLRLSCAASGSTVGYNAMGWYRQAPGKERELVAAISGNGGSTYADSVKGRFTISRDNAKNTVYLQMNSLKPEDTAVYFCAAVQYGYGLASDSIFDYWGQGTQVTVSS | high polyreactivity |
| QVQLVESGGGLVQAGVSLRLSCAASGTFFGYAMGWYRQAPGKERELVASITSGDSTNYADSVKGRFTISRDNAKKTVYLQMNSLKPEDTAVYYCNADRFADYDYWGQGTQVTVSS | low polyreactivity |
| QVQLVESGGGLVQAGVSLRLSCAASGYIFRFNAMGWYRQAPGKERELVAVITSGARTYYADSVKGRFTISRDNAKNTVYLQMNSLKPEDTAVYYCNAGARRYLYDYWGQGTQVTVSS | low polyreactivity |
| QVQLVESGGGLVQAGVSLRLSCASSGFTFHYYAMGWYRQAPGKERELVAAISWSSGRTYYADSVKGRFTISRDNAKNTVYLQMNSLKPEDTAVYYCAASSYNRGDYWGQGTQVTVSS | low polyreactivity |
| QVQLVESGGGLVQAGVSLRLSCDASGSILRENAMGWYRQAPGKERELVAVITRGGNTYYADSVKGRFTISRDNAKNTVYLQMNSLKPEDTAVYYCAAKRRERYGLTYGYWGQGTQVTVSS | high polyreactivity |
| QVQLVESGGGLVQARGILRLSCAASGNIFGRYAMGWSRQAPGKERELVAAITRSCGRTYYADSVKGRFTISRHHAKNTVYLQRNSLKPEDTAGYYCAAVGGRDVYPVVDRDYWGQGTQLTVSS | low polyreactivity |
| QVQLVESGGGLVQARGSLRLICAASVQIFRVYAMGWSRQAPGKEREFVAAMTYDGGNTYYADSVKGRFTISRDNAKNTVYLQMLSLKPEDTAVYYCAKDYGEWGQGTQVTVSS | low polyreactivity |
| QVQLVESGGGLVQARGSLRLSCAASGFIIRWNTKGWYRQAPGKVRELVAAISSRGGSTYYADSVKGRFKISRDNAKNTVYLQMNSRKPEDTAVYYCNAVRGDEYWGLGTQVTVSS | high polyreactivity |
| QVQLVESGGGLVQARGSLRLSCAASGFIYRYNVMGWYRQAPGKERELVAAISTSGGRTYYADSVKGRFTISRDNAKITVYLQMNSLKPEDTAVYYCIAVISEVHKVRDGFYWGQGSQVTVSS | high polyreactivity |
